# T1: mouse FcγRII (mouse, UniProt P08101 30-210)
# T1 construct: also called mFcγRII; mFcgRII
# T1 sequence: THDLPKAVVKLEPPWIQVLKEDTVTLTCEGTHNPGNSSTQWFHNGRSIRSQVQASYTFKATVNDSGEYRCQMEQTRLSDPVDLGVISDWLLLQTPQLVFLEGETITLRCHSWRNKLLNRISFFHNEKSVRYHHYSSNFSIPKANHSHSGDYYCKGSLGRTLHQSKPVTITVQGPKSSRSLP
# T2: mouse FcγRIII (mouse, UniProt P08508 31-215)
# T2 construct: also called mFcγRIII; mFcgRIII
# T2 chain: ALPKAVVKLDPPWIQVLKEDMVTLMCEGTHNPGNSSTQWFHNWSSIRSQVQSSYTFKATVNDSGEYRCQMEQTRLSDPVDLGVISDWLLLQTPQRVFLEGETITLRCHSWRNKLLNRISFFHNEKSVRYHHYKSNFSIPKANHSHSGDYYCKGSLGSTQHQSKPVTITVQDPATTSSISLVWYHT
# What was measured:
# mouse FcγRII = target: T1, mouse FcγRII; experiment: SPR (Biacore), antibody captured on Protein L, mFcγR as analyte
# Protocol: (§1) Each altered antibody was analyzed for its interaction with each Fcγ receptor prepared above using Biacore T100 (GE Healthcare Japan Corp.), Biacore T200 (GE Healthcare Japan Corp.), Biacore A100, or Biacore 4000. The running buffer used was HBS-EP+ (GE Healthcare Japan Corp.). The assay temperature was set to 25° C. The sensor chips used were chips prepared by immobilizing Protein L (ACTIGEN or BioVision) onto Series S Sensor Chip CM5 (GE Healthcare Japan Corp.) or Series S Sensor Chip CM4 (GE Healthcare Japan Corp.) by the amine coupling method.
# (§2) In order to calculate the KD value of each altered antibody for FcγR, kinetic analysis was conducted according to the following method: first, the antibody of interest was captured onto any of these chips and allowed to interact with mFcγR diluted with a running buffer. For the obtained sensorgram, the assay results were globally fit into the 1:1 Langmuir binding model using Biacore Evaluation Software to calculate an association rate constant ka (L/mol/s) and a dissociation rate constant kd (1/s). From these values, the dissociation constant KD (mol/L) was calculated.
# mouse FcγRIII = target: T2, mouse FcγRIII; experiment: as above
# Protocol: as §1, §2
binder,measurement,setting,value
"H237-MB693/MRAL-k0 (antibody, mouse IgG1, kappa, mouse IgG1 CH variant; copies: 2 + 2) heavy: QVQLQESGPGLVKPSETLSLTCAVSGHSISHDHAWSWVRQPPGEGLEWIGFISYSGITNYNPSLQGRVTISRDNSKNTLYLQMNSLRAEDTAVYYCARSLARTTAMDYWGEGTLVTVSSAKTTPPSVYPLAPGSAAQTNSMVTLGCLVKGYFPEPVTVTWNSGSLSSGVHTFPAVLQSDLYTLSSSVTVPSSTWPSETVTCNVAHPASSTKVDKKIVPRDCGCKPCICTDYEVEYVFIFPPKPKDVLTITLTPKVTCVVVDISKDDPEVQFSWFVDDVEVHTAQTQPREEQFNSTFRSVSELPIMHQDWLNGKEFKCRVNSAAFPAPIEKTISKTKGRPKAPQVYTIPPPKEQMAKDKVSLTCMITDFFPEDITVEWQWNGQPAENYKNTQPIMDTDGSYFVYSKLNVQKSNWEAGNTFTCSVLHEGLHNHHTEKSLSHSPGK light: not shown",Kd,mouse FcγRII,267 nM
same,relative mFcγRII-binding activity (mIgG1 = 1),mouse FcγRII,1.22 fold
same,Kd,mouse FcγRIII,5410 nM
same,relative mFcγRIII-binding activity (mIgG1 = 1),mouse FcγRIII,0.09 fold
"H237-MB703/MRAL-k0 (antibody, mouse IgG1, kappa, mouse IgG1 CH variant; copies: 2 + 2) heavy: QVQLQESGPGLVKPSETLSLTCAVSGHSISHDHAWSWVRQPPGEGLEWIGFISYSGITNYNPSLQGRVTISRDNSKNTLYLQMNSLRAEDTAVYYCARSLARTTAMDYWGEGTLVTVSSAKTTPPSVYPLAPGSAAQTNSMVTLGCLVKGYFPEPVTVTWNSGSLSSGVHTFPAVLQSDLYTLSSSVTVPSSTWPSETVTCNVAHPASSTKVDKKIVPRDCGCKPCICEAPEVENVFIFPPKPKDVLTITLTPKVTCVVVDISKDDPEVQFSWFVDDVEVHTAQTQPREEQFNSTFRSVSELPIMHQDWLNGKEFKCRVNSAAFPAPIEKTISKTKGRPKAPQVYTIPPPKEQMAKDKVSLTCMITDFFPEDITVEWQWNGQPAENYKNTQPIMDTDGSYFVYSKLNVQKSNWEAGNTFTCSVLHEGLHNHHTEKSLSHSPGK light: not shown",Kd,mouse FcγRII,345 nM
same,relative mFcγRII-binding activity (mIgG1 = 1),mouse FcγRII,0.94 fold
same,Kd,mouse FcγRIII,4900 nM
same,relative mFcγRIII-binding activity (mIgG1 = 1),mouse FcγRIII,0.1 fold
"H237-MB748/MRAL-k0 (antibody, mouse IgG1, kappa, mouse IgG1 CH variant; copies: 2 + 2) heavy: QVQLQESGPGLVKPSETLSLTCAVSGHSISHDHAWSWVRQPPGEGLEWIGFISYSGITNYNPSLQGRVTISRDNSKNTLYLQMNSLRAEDTAVYYCARSLARTTAMDYWGEGTLVTVSSAKTTPPSVYPLAPGSAAQTNSMVTLGCLVKGYFPEPVTVTWNSGSLSSGVHTFPAVLQSDLYTLSSSVTVPSSTWPSETVTCNVAHPASSTKVDKKIVPRDCGCKPCICEPNEVELVFIFPPKPKDVLTITLTPKVTCVVVDIAKDDPEVQFSWFVDDVEVHTAQTQPREEQFNSTFRSVSELPIMHQDWLNGKEFKCRVNSAAFPAPIEKTISKTKGRPKAPQVYTIPPPKEQMAKDKVSLTCMITDFFPEDITVEWQWNGQPAENYKNTQPIMDTDGSYFVYSKLNVQKSNWEAGNTFTCSVLHEGLHNHHTEKSLSHSPGK light: not shown",Kd,mouse FcγRII,17.9 nM
same,relative mFcγRII-binding activity (mIgG1 = 1),mouse FcγRII,10.3 fold
same,Kd,mouse FcγRIII,2060 nM
same,relative mFcγRIII-binding activity (mIgG1 = 1),mouse FcγRIII,0.18 fold
"H237-MB718/MRAL-k0 (antibody, mouse IgG1, kappa, mouse IgG1 CH variant; copies: 2 + 2) heavy: QVQLQESGPGLVKPSETLSLTCAVSGHSISHDHAWSWVRQPPGEGLEWIGFISYSGITNYNPSLQGRVTISRDNSKNTLYLQMNSLRAEDTAVYYCARSLARTTAMDYWGEGTLVTVSSAKTTPPSVYPLAPGSAAQTNSMVTLGCLVKGYFPEPVTVTWNSGSLSSGVHTFPAVLQSDLYTLSSSVTVPSSTWPSETVTCNVAHPASSTKVDKKIVPRDCGCKPCICEPNEVETVFIFPPKPKDVLTITLTPKVTCVVVDISKDDPEVQFSWFVDDVEVHTAQTQPREEQFNSTFRSVSELPIMHQDWLNGKEFKCRVNSAAFPAPIEKTISKTKGRPKAPQVYTIPPPKEQMAKDKVSLTCMITDFFPEDITVEWQWNGQPAENYKNTQPIMDTDGSYFVYSKLNVQKSNWEAGNTFTCSVLHEGLHNHHTEKSLSHSPGK light: not shown",Kd,mouse FcγRII,247 nM
same,relative mFcγRII-binding activity (mIgG1 = 1),mouse FcγRII,1.08 fold
same,Kd,mouse FcγRIII,5560 nM
same,relative mFcγRIII-binding activity (mIgG1 = 1),mouse FcγRIII,0.08 fold
"H237-MB716/MRAL-k0 (antibody, mouse IgG1, kappa, mouse IgG1 CH variant; copies: 2 + 2) heavy: QVQLQESGPGLVKPSETLSLTCAVSGHSISHDHAWSWVRQPPGEGLEWIGFISYSGITNYNPSLQGRVTISRDNSKNTLYLQMNSLRAEDTAVYYCARSLARTTAMDYWGEGTLVTVSSAKTTPPSVYPLAPGSAAQTNSMVTLGCLVKGYFPEPVTVTWNSGSLSSGVHTFPAVLQSDLYTLSSSVTVPSSTWPSETVTCNVAHPASSTKVDKKIVPRDCGCKPCICEPNEVEIVFIFPPKPKDVLTITLTPKVTCVVVDISKDDPEVQFSWFVDDVEVHTAQTQPREEQFNSTFRSVSELPIMHQDWLNGKEFKCRVNSAAFPAPIEKTISKTKGRPKAPQVYTIPPPKEQMAKDKVSLTCMITDFFPEDITVEWQWNGQPAENYKNTQPIMDTDGSYFVYSKLNVQKSNWEAGNTFTCSVLHEGLHNHHTEKSLSHSPGK light: not shown",Kd,mouse FcγRII,52.8 nM
same,relative mFcγRII-binding activity (mIgG1 = 1),mouse FcγRII,5.07 fold
same,Kd,mouse FcγRIII,6150 nM
same,relative mFcγRIII-binding activity (mIgG1 = 1),mouse FcγRIII,0.08 fold
"H237-MB731/MRAL-k0 (antibody, mouse IgG1, kappa, mouse IgG1 CH variant; copies: 2 + 2) heavy: QVQLQESGPGLVKPSETLSLTCAVSGHSISHDHAWSWVRQPPGEGLEWIGFISYSGITNYNPSLQGRVTISRDNSKNTLYLQMNSLRAEDTAVYYCARSLARTTAMDYWGEGTLVTVSSAKTTPPSVYPLAPGSAAQTNSMVTLGCLVKGYFPEPVTVTWNSGSLSSGVHTFPAVLQSDLYTLSSSVTVPSSTWPSETVTCNVAHPASSTKVDKKIVPRDCGCKPCICEPAEEELVFIFPPKPKDVLTITLTPKVTCVVVDISKDDPEVQFSWFVDDVEVHTAQTQPREEQFNSTFRSVSELPIMHQDWLNGKEFKCRVNSAAFPAPIEKTISKTKGRPKAPQVYTIPPPKEQMAKDKVSLTCMITDFFPEDITVEWQWNGQPAENYKNTQPIMDTDGSYFVYSKLNVQKSNWEAGNTFTCSVLHEGLHNHHTEKSLSHSPGK light: not shown",Kd,mouse FcγRII,238 nM
same,relative mFcγRII-binding activity (mIgG1 = 1),mouse FcγRII,1.13 fold
same,Kd,mouse FcγRIII,15300 nM
same,relative mFcγRIII-binding activity (mIgG1 = 1),mouse FcγRIII,0.03 fold
"H237-MB715/MRAL-k0 (antibody, mouse IgG1, kappa, mouse IgG1 CH variant; copies: 2 + 2) heavy: QVQLQESGPGLVKPSETLSLTCAVSGHSISHDHAWSWVRQPPGEGLEWIGFISYSGITNYNPSLQGRVTISRDNSKNTLYLQMNSLRAEDTAVYYCARSLARTTAMDYWGEGTLVTVSSAKTTPPSVYPLAPGSAAQTNSMVTLGCLVKGYFPEPVTVTWNSGSLSSGVHTFPAVLQSDLYTLSSSVTVPSSTWPSETVTCNVAHPASSTKVDKKIVPRDCGCKPCICEPNEVEVVFIFPPKPKDVLTITLTPKVTCVVVDISKDDPEVQFSWFVDDVEVHTAQTQPREEQFNSTFRSVSELPIMHQDWLNGKEFKCRVNSAAFPAPIEKTISKTKGRPKAPQVYTIPPPKEQMAKDKVSLTCMITDFFPEDITVEWQWNGQPAENYKNTQPIMDTDGSYFVYSKLNVQKSNWEAGNTFTCSVLHEGLHNHHTEKSLSHSPGK light: not shown",Kd,mouse FcγRII,236 nM
same,relative mFcγRII-binding activity (mIgG1 = 1),mouse FcγRII,1.14 fold
same,Kd,mouse FcγRIII,11900 nM
same,relative mFcγRIII-binding activity (mIgG1 = 1),mouse FcγRIII,0.04 fold
"H237-MB732/MRAL-k0 (antibody, mouse IgG1, kappa, mouse IgG1 CH variant; copies: 2 + 2) heavy: QVQLQESGPGLVKPSETLSLTCAVSGHSISHDHAWSWVRQPPGEGLEWIGFISYSGITNYNPSLQGRVTISRDNSKNTLYLQMNSLRAEDTAVYYCARSLARTTAMDYWGEGTLVTVSSAKTTPPSVYPLAPGSAAQTNSMVTLGCLVKGYFPEPVTVTWNSGSLSSGVHTFPAVLQSDLYTLSSSVTVPSSTWPSETVTCNVAHPASSTKVDKKIVPRDCGCKPCICEPNEEELVFIFPPKPKDVLTITLTPKVTCVVVDISKDDPEVQFSWFVDDVEVHTAQTQPREEQFNSTFRSVSELPIMHQDWLNGKEFKCRVNSAAFPAPIEKTISKTKGRPKAPQVYTIPPPKEQMAKDKVSLTCMITDFFPEDITVEWQWNGQPAENYKNTQPIMDTDGSYFVYSKLNVQKSNWEAGNTFTCSVLHEGLHNHHTEKSLSHSPGK light: not shown",Kd,mouse FcγRII,321 nM
same,relative mFcγRII-binding activity (mIgG1 = 1),mouse FcγRII,0.84 fold
same,Kd,mouse FcγRIII,13700 nM
same,relative mFcγRIII-binding activity (mIgG1 = 1),mouse FcγRIII,0.03 fold
"H237-MB702/MRAL-k0 (antibody, mouse IgG1, kappa, mouse IgG1 CH variant; copies: 2 + 2) heavy: QVQLQESGPGLVKPSETLSLTCAVSGHSISHDHAWSWVRQPPGEGLEWIGFISYSGITNYNPSLQGRVTISRDNSKNTLYLQMNSLRAEDTAVYYCARSLARTTAMDYWGEGTLVTVSSAKTTPPSVYPLAPGSAAQTNSMVTLGCLVKGYFPEPVTVTWNSGSLSSGVHTFPAVLQSDLYTLSSSVTVPSSTWPSETVTCNVAHPASSTKVDKKIVPRDCGCKPCICTAYEVENVFIFPPKPKDVLTITLTPKVTCVVVDISKDDPEVQFSWFVDDVEVHTAQTQPREEQFNSTFRSVSELPIMHQDWLNGKEFKCRVNSAAFPAPIEKTISKTKGRPKAPQVYTIPPPKEQMAKDKVSLTCMITDFFPEDITVEWQWNGQPAENYKNTQPIMDTDGSYFVYSKLNVQKSNWEAGNTFTCSVLHEGLHNHHTEKSLSHSPGK light: not shown",Kd,mouse FcγRII,339 nM
same,relative mFcγRII-binding activity (mIgG1 = 1),mouse FcγRII,0.96 fold
same,Kd,mouse FcγRIII,3520 nM
same,relative mFcγRIII-binding activity (mIgG1 = 1),mouse FcγRIII,0.14 fold
